This note sets out measurements from publication PMC3961177, “Photoactivated UVR8-COP1 Module Determines Photomorphogenic UV-B Signaling Output in Arabidopsis” (PLoS Genetics, 2014).

Where a chain is given by its changes, count along the chain named. Names and notes keep the numbering of the source.

Data set [1] deals with T1, LexA fused wild-type UVR8 (UV … LOCUS 8) (Arabidopsis thaliana), Q9FN03.
T1 chain: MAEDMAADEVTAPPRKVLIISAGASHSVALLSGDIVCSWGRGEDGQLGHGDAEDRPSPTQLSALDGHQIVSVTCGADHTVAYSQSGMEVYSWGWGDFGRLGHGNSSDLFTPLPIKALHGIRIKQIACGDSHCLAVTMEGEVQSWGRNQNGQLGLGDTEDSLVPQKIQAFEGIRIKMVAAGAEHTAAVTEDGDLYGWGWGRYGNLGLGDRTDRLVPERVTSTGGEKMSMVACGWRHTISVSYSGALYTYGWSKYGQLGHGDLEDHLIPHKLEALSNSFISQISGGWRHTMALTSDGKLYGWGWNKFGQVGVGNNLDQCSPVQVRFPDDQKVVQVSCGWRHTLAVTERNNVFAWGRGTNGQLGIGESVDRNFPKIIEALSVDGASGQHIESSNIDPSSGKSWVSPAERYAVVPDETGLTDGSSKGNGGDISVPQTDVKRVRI
Kind of data set: SDS-PAGE of unboiled extracts with immunoblot; total protein extracts of yeast EGY48 expressing LexA-UVR8, kept on ice under −UV-B or +UV-B for 20 min, loaded without boiling, anti-LexA immunoblot. The following applies: remark: other sources report otherwise.

Data set [2] deals with the molecule itself. Kind of data set: SDS-PAGE of unboiled extracts with immunoblot; total protein extracts of 4-day-old transgenic seedlings grown under −UV-B or +UV-B, extracts kept on ice under the same condition for 30 min, loaded without boiling, anti-GFP immunoblot.
In data set [3] the target is T2, YFP-UVR8^WT (proUVR8-YFP-UVR8/uvr8-6) (Arabidopsis thaliana), Q9FN03.
T2 chain: T1 chain
The description is as above. The conditions noted are these: remark: other sources report otherwise.

Data set [4] concerns the molecule itself. In words: SDS-PAGE of unboiled extracts with immunoblot; total protein extracts of yeast EGY48 expressing LexA-UVR8, kept on ice under −UV-B or +UV-B for 20 min, loaded without boiling, anti-LexA immunoblot. (In western blotting, separated proteins are transferred to a membrane and probed.)

B1: LexA fused wild-type UVR8 (UV … LOCUS 8), Q9FN03 1-440 (natural protein)
chain: T1 chain
By stoichiometry N is commonly meant the number of molecules, sites or subunits per partner or assembly. Molecule B1 displayed a stoichiometry N in data set [1] of 2.

B2: YFP-UVR8^W285F (proUVR8-YFP-UVR8^W285F/uvr8-6) (natural protein, Arabidopsis thaliana, UniProt Q9FN03 1-440, looked up)
chain: T1 chain with W285F
notes: UV … LOCUS 8 (UVR8), Arabidopsis thaliana; The N-terminal place of YFP is read from the construct's name; source: transgenic Arabidopsis (native UVR8 promoter, uvr8-6 background), 4-day-old seedlings, in total protein extract; not shown: YFP, N-terminal, kept
As for B2, in data set [2], the “stoichiometry N” value is 2.

B3: YFP-UVR8^WT (proUVR8-YFP-UVR8/uvr8-6), Q9FN03 1-440 (natural protein)
chain: T1 chain
As to B3, in data set [3], the stoichiometry N worked out at 2.

B4: LexA fused UVR8^W285F (natural protein, Arabidopsis thaliana, UniProt Q9FN03 1-440, looked up)
chain: T1 chain with W285F
notes: UV … LOCUS 8 (UVR8), Arabidopsis thaliana; also called mUVR8; source: yeast strain EGY48, LexA fusion; in total protein extract (dimer/monomer assay) and yeast two-hybrid fusion
Turning to B4, the “stoichiometry N” value in data set [4] is 2.
